Assay results: publication PMC3814645 (Genes & Development, 2013)

Target: eIF4E (endogenous) (human (endogenous in HCT116), UniProt P06730 1-217)
Test: co-IP

Chain of eIF4E (endogenous) (P06730 whole entry): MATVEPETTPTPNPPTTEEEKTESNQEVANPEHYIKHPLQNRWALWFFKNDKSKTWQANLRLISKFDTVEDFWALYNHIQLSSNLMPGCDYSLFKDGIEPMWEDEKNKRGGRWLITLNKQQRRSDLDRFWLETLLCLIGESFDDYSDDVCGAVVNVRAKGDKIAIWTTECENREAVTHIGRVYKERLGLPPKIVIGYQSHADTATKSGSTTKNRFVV

B1: p-RNPC1 (endogenous RNPC1 phosphorylated at Ser195) (natural protein, human (endogenous in HCT116 and RKO), UniProt Q9H0Z9 1-239, looked up)
chain: MLLQPAPCAPSAGFPRPLAAPGAMHGSQKDTTFTKIFVGGLPYHTTDASLRKYFEGFGDIEEAVVITDRQTGKSRGYGFVTMADRAAAERACKDPNPIIDGRKANVNLAYLGAKPRSLQTGFAIGVQQLHPTLIQRTYGLTPHYIYPPAIVQPSVVIPAAPVPSLSSPYIEYTPASPAYAQYPPATYDQYPYAASPATAASFVGYSYPAAVPQALSAAAPAGTTFVQYQAPQLQPDRMQ
modifications: phosphoserine at 195
  ratio of p-RNPC1 versus RNPC1 in anti-eIF4E immunocomplexes: 0.12
